Measured values from paper PMC6684588.

Key:
myostatin (GDF8) [1] = target: myostatin (GDF8) (UniProt O14793)
[2] = target: growth differentiation factor 11 (GDF11) (UniProt O95390)
activin B [3] = target: activin B (UniProt P09529)
activin A [4] = target: activin A (UniProt P08476)
myostatin (GDF8) [5] = target: myostatin (GDF8) (UniProt O14793); remark: listed apart in the source
[6] = target: growth differentiation factor 11 (GDF11) (UniProt O95390); remark: listed apart in the source
activin B [7] = target: activin B (UniProt P09529); remark: listed apart in the source
activin A [8] = target: activin A (UniProt P08476); remark: listed apart in the source
ACE-083 (human) = test: SPR; detailed kinetics: ACE-083 captured on immobilized goat anti-human Fc-specific antibody; two-fold series of BMP6 (0.156 nM-5 nM) and BMP7 (0.078 nM-5 nM) injected in duplicate, association 210 sec, dissociation 600 sec, 100 μl/min; global fit to 1:1 model with mass transport term (BIAevaluation); means of two flow cells
[9] = target: ACE-083 (FST291-Fc fusion protein) (human); test: SPR; Biacore T100, capture format at 37 °C; ACE-083 captured on an anti-human IgG Fc sensor chip, ligands injected as analytes in a concentration series in duplicate; association 210 sec, dissociation 600 sec (1200 sec for activin A and GDF11); global fit to a 1:1 binding model with mass transfer term; apparent KD

Sequence of BMP7 (P18075 293-431): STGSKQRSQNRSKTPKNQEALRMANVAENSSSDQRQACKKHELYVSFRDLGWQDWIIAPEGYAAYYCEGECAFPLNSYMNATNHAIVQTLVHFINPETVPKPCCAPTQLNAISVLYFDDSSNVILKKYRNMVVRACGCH
Sequence of myostatin (GDF8) (O14793 267-375): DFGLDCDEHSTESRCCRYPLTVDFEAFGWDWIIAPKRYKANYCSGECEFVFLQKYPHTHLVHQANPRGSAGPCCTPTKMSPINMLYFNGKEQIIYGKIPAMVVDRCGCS

| Molecule | Kd [9] | koff [9] | kon [9] | other results |
| --- | --- | --- | --- | --- |
| ACE-083 (FST291-Fc fusion protein) | – | – | – | IC50 of inhibition of GDF8 signaling through its cognate receptors, CAGA12 dual-luciferase reporter-gene assay in A204 cells (myostatin (GDF8) [1]): 676 pM; IC50 of inhibition of GDF11 signaling through its cognate receptors, CAGA12 dual-luciferase reporter-gene assay in A204 cells [2]: 75.9 pM; IC50 of inhibition of activin B signaling through its cognate receptors, CAGA12 dual-luciferase reporter-gene assay in A204 cells (activin B [3]): 49.2 pM; IC50 of inhibition of activin A signaling through its cognate receptors, CAGA12 dual-luciferase reporter-gene assay in A204 cells (activin A [4]): 39.2 pM |
| ACE-083 (Fc fusion) | – | – | – | Supplementary Figure S2: IC50 of ACE-083 for inhibition of GDF8 signalling through its cognate receptors, luciferase reporter-gene assay in A204 cells (representative curve of three experiments) (myostatin (GDF8) [5]): 81.9 ng/mL; Supplementary Figure S2: IC50 of ACE-083 for inhibition of GDF11 signalling through its cognate receptors, luciferase reporter-gene assay in A204 cells (representative curve of three experiments) [6]: 8.04 ng/mL; Supplementary Figure S2: IC50 of ACE-083 for inhibition of activin B signalling through its cognate receptors, luciferase reporter-gene assay in A204 cells (representative curve of three experiments) (activin B [7]): 4.75 ng/mL; Supplementary Figure S2: IC50 of ACE-083 for inhibition of activin A signalling through its cognate receptors, luciferase reporter-gene assay in A204 cells (representative curve of three experiments) (activin A [8]): 4.63 ng/mL |
| BMP7 (from UniProt P18075 293-431) (ligand) | – | – | – | Kd (ACE-083 (human)): 0.291 nM; koff (ACE-083 (human)): 0.00196 s⁻¹; kon (ACE-083 (human)): 6.75e+06 M⁻¹ s⁻¹ |
| myostatin (GDF8) (from UniProt O14793 267-375) (ligand) | 0.348 nM | 0.000185 s⁻¹ | 532000 M⁻¹ s⁻¹ | – |
| activin A (ligand) GLECDGKVNICCKKQFFVSFKDIGWNDWIIAPSGYHANYCEGECPSHIAGTSGSSLSFHSTVINHYRMRGHSPFANLKSCCVPTKLRPMSMLYYDDGQNIIKKDIQNMIVEECGCS | 0.0788 nM | 0.000155 s⁻¹ | 1.97e+06 M⁻¹ s⁻¹ | – |
| activin B (ligand) GLECDGRTNLCCRQQFFIDFRLIGWNDWIIAPTGYYGNYCEGSCPAYLAGVPGSASSFHTAVVNQYRMRGLNPGTVNSCCIPTKLSTMSMLYFDDEYNIVKRDVPNMIVEECGCA | 0.0103 nM | 0.000199 s⁻¹ | 1.93e+07 M⁻¹ s⁻¹ | – |
| growth differentiation factor 11 (GDF11) (ligand) NLGLDCDEHSSESRCCRYPLTVDFEAFGWDWIIAPKRYKANYCSGQCEYMFMQKYPHTHLVQQANPRGSAGPCCTPTKMSPINMLYFNDKQQIIYGKIPGMVVDRCGCS | 0.0154 nM | 7.2e-05 s⁻¹ | 4.77e+06 M⁻¹ s⁻¹ | – |
